Measurements published in the supplement of paper PMC9732359.
± gives the uncertainty stated by the source.

test: protein stability index of a GFP-peptide fusion (yeast GPS) (PSI 1-4); higher = more stable; sorted into four equal gates, so the index is relative within each strain; settings: doa10∆
Summary of the method: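 Plasmids isolated from each sorting gate were PCR-amplified and Illumina-sequenced, and barcodes assigned the reads to strains. The gates, four of equal size, were set by GFP/Cherry fluorescence ratio on mid-log cultures in leucine-free medium. These cultures were yeast carrying a pooled library of tiled 17-residue yeast protein peptides fused downstream of GFP on a plasmid that also expresses Cherry. The protein stability index is the sum of every gate's read frequency times its gate number.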

| Sequence | protein stability index |
| --- | --- |
| PSAGPHKLRESLPLIVF [RPS4A] | 1.76 ± 0.048 |
| PSKDSFTKYKPARSSSL [YAR002W/NUP60] | 2.15 ± 0.043 |
| PSKSQTNFKEEITDASL [YML103C/NUP188] | 2.93 ± 0.15 |
| PSLYRLLNILITYGIIK [SRB8] | 1.37 ± 0.12 |
| PSPPNVIITDGTLLRED [YDL088C/ASM4] | 2.71 ± 0.036 |
| PSRKDCMEVASAFMKFS [BRR2] | 2.4 ± 0.054 |
| PSTDKNEKKTETNAKPF [YLR335W/NUP2] | 3.32 ± 0.11 |
| PSTRSNFILEVFGTIIP [YJL039C/NUP192] | 1.35 ± 0.085 |
| PSTSITLAERQQLAYDL [RPN9] | 2.91 ± 0.045 |
| PSTTLFNFGGKSDTVTS [YOR098C/NUP1] | 2.51 ± 0.065 |
| PTEMEPDLDTECFISMQ [SWI1] | 3.27 ± 0.055 |
| PTFTFGSSALADNKEDV [YLR335W/NUP2] | 3.13 ± 0.074 |
| PTFVEFILIPLYKIFSY [SNU114] | 1.98 ± 0.045 |
| PTIEYVQCPTVIKLAKY [ARP9] | 1.97 ± 0.047 |
| PTPAASAPAPAAAAPAP [FAS2] | 2.95 ± 0.1 |
| PTRYVLIRNVGTNTYRL [POP1] | 1.97 ± 0.29 |
| PTVHNSTAAAPIAAPKK [PGD1] | 2.81 ± 0.065 |
| PVDHPHGGGNHQHIGKA [RPL2A] | 3.11 ± 0.11 |
| PVENIWADIFAKALDGQ [RPP1A] | 3.13 ± 0.1 |
| PVIDYELKEITSLPDWC [BRR2] | 2.8 ± 0.099 |
| PVKALNECIASTSNALK [SNF12] | 2.85 ± 0.056 |
| PVKLDENSANSTVASAL [SIR4] | 2.9 ± 0.13 |
| PVLDNPFTNEAHMWPRV [POP3] | 3.26 ± 0.12 |
| PVLFNRQPSLHKMSMMA [RPO21] | 2.54 ± 0.11 |
| PVRPVRVRHEDVETVKR [RPC53] | 2.9 ± 0.077 |

| Sequence | protein stability index |
| --- | --- |
| PYAIVKGKARLGTLVNQ [RPL8A] | 2.54 ± 0.1 |
| PYFDYIFNDILAHVDQI [YJL039C/NUP192] | 1.9 ± 0.11 |
| PYQHPPNIFPNLTYYNE [ITC1] | 2.68 ± 0.058 |
| PYTGWVDSKTKEPVDDK [FAS2] | 3.05 ± 0.062 |
| PYYKYLCEEYLVNNGQS [RPN7] | 2.86 ± 0.087 |
| QAHEIVIPSYSKWFNLE [SWI3] | 1.84 ± 0.052 |
| QAHTLYNSVRPFGVSTI [PRE10] | 2.71 ± 0.083 |
| QAIPKFQMNCYAKEDAF [RPN2] | 1.84 ± 0.061 |
| QALDISKKGKPTVNKKP [SRP72] | 2.59 ± 0.16 |
| QALEKIGIVEISPKGGR [RPS19A] | 2.46 ± 0.15 |
| QAMGVFLTNYNVRMDTM [RPB2] | 3.54 ± 0.19 |
| QAPFSTSTKDKNSSTSN [MED1] | 3.11 ± 0.062 |
| QAQAQAQAQAQAQAQAQ [GAL11] | 2.84 ± 0.032 |
| QAQQAQQAQARLQQGRR [SNF2] | 3.02 ± 0.08 |
| QDIKKAKRVENFNSSAP [DSN1] | 3.31 ± 0.1 |
| QDKEGIPPDQQRLIFAG [RPS31] | 2.95 ± 0.068 |
| QDKEKIDNLKDTLKENA [ITC1] | 2.87 ± 0.046 |
| QDRQQLLPLVVSNISCL [ECM29] | 1.38 ± 0.046 |
| QDSILIIYPRSQTTLVQ [ARP9] | 2.6 ± 0.16 |
| QDVDFYKNLDRGFSKDL [RRP6] | 3.44 ± 0.13 |
| QEAVNSLKGYKIENSVQ [CSI1] | 3.2 ± 0.13 |
| QEESFSLNLGIGIVEIA [SRB8] | 1.33 ± 0.11 |
| QEGMNECPGHFGHIDLA [RPO21] | 3.27 ± 0.21 |
| QELISKAFTNWNKRDFM [ISW2] | 2.27 ± 0.14 |
| QELKADSPFSLICQNNL [SRP72] | 2.53 ± 0.078 |

| Sequence | protein stability index |
| --- | --- |
| QESSSLRLLEVTDDDRL [POP8] | 2.1 ± 0.068 |
| QEYAIEMKIGSIESKLE [SMC1] | 2.84 ± 0.091 |
| QFGNACISLSGVPNYLV [SSN2] | 1.59 ± 0.077 |
| QFKKLTHAQRTGLSQIP [PRP8] | 2.05 ± 0.11 |
| QFLYEKHYKNIPRNSPL [RPC82] | 1.92 ± 0.068 |
| QFSESTHNDIDSTAVAL [YJL039C/NUP192] | 2.76 ± 0.098 |
| QFSQLNDPNAAVNMTQN [MED6] | 2.71 ± 0.089 |
| QFTRFFLLVPSKQVQVS [ECM29] | 1.27 ± 0.075 |
| QFVSKLVDNLNAEVVAG [BRR2] | 2.25 ± 0.042 |
| QGAKTYLERTLDTFIKI [PRE5] | 3.03 ± 0.081 |
| QGIIYAKVNRPAKIVNF [RPN5] | 2.61 ± 0.13 |
| QGNPKKRPGKLSDYIPG [CYT1] | 3.17 ± 0.066 |
| QGTGKKTASLGNSKDDL [ISW2] | 3.02 ± 0.12 |
| QHDKMVDKIFEKVNNNA [SWI1] | 3.19 ± 0.15 |
| QHEQQKQQEQLEQQKQP [YMR153W/NUP53] | 3.37 ± 0.056 |
| QHTTESDNISRKYEISF [RPB2] | 3.16 ± 0.11 |
| QHYKNNSISSQPASYHS [SSN2] | 2.56 ± 0.058 |
| QIAKFVVGLGERVSPTD [RPT1] | 2.62 ± 0.099 |
| QIIFGVVEKKTVGSSNG [RPO21] | 1.66 ± 0.11 |
| QIRDVMERFSVLCNSNI [RRP6] | 2.41 ± 0.11 |
| QITPTVPHSHPSDMVIP [SNF12] | 2.69 ± 0.044 |
| QIVPYIEKLTDGHLRAP [BRR2] | 3.04 ± 0.052 |
| QKIRNSEGISEATREVF [ITC1] | 3.11 ± 0.2 |
| QKKARTILQHLSEAWRC [PRP8] | 1.96 ± 0.11 |
| QKLFVQVSNFAPQVYII [GAL11] | 2.62 ± 0.077 |

same assay, conditions: pdr5∆

| Sequence | protein stability index |
| --- | --- |
| PSAGPHKLRESLPLIVF [RPS4A] | 1.75 ± 0.045 |
| PSKDSFTKYKPARSSSL [YAR002W/NUP60] | 2.59 ± 0.044 |
| PSKSQTNFKEEITDASL [YML103C/NUP188] | 3.13 ± 0.11 |
| PSLYRLLNILITYGIIK [SRB8] | 1.07 ± 0.12 |
| PSPPNVIITDGTLLRED [YDL088C/ASM4] | 2.81 ± 0.041 |
| PSRKDCMEVASAFMKFS [BRR2] | 2.78 ± 0.047 |
| PSTDKNEKKTETNAKPF [YLR335W/NUP2] | 3.28 ± 0.094 |
| PSTRSNFILEVFGTIIP [YJL039C/NUP192] | 1.41 ± 0.071 |
| PSTSITLAERQQLAYDL [RPN9] | 3.09 ± 0.06 |
| PSTTLFNFGGKSDTVTS [YOR098C/NUP1] | 2.32 ± 0.075 |
| PTEMEPDLDTECFISMQ [SWI1] | 3.39 ± 0.052 |
| PTFTFGSSALADNKEDV [YLR335W/NUP2] | 3.06 ± 0.049 |
| PTFVEFILIPLYKIFSY [SNU114] | 1.73 ± 0.054 |
| PTIEYVQCPTVIKLAKY [ARP9] | 1.87 ± 0.034 |
| PTPAASAPAPAAAAPAP [FAS2] | 3.05 ± 0.073 |
| PTRYVLIRNVGTNTYRL [POP1] | 1.32 ± 0.23 |
| PTVHNSTAAAPIAAPKK [PGD1] | 3.08 ± 0.071 |
| PVDHPHGGGNHQHIGKA [RPL2A] | 3.31 ± 0.085 |
| PVENIWADIFAKALDGQ [RPP1A] | 3.25 ± 0.12 |
| PVIDYELKEITSLPDWC [BRR2] | 2.78 ± 0.086 |
| PVKALNECIASTSNALK [SNF12] | 2.8 ± 0.066 |
| PVKLDENSANSTVASAL [SIR4] | 3.09 ± 0.081 |
| PVLDNPFTNEAHMWPRV [POP3] | 2.94 ± 0.1 |
| PVLFNRQPSLHKMSMMA [RPO21] | 2.95 ± 0.093 |
| PVRPVRVRHEDVETVKR [RPC53] | 2.97 ± 0.048 |
| PYAIVKGKARLGTLVNQ [RPL8A] | 2.81 ± 0.093 |

| Sequence | protein stability index |
| --- | --- |
| PYFDYIFNDILAHVDQI [YJL039C/NUP192] | 1.89 ± 0.077 |
| PYQHPPNIFPNLTYYNE [ITC1] | 2.83 ± 0.045 |
| PYTGWVDSKTKEPVDDK [FAS2] | 3.17 ± 0.069 |
| PYYKYLCEEYLVNNGQS [RPN7] | 2.41 ± 0.091 |
| QAHEIVIPSYSKWFNLE [SWI3] | 1.82 ± 0.051 |
| QAHTLYNSVRPFGVSTI [PRE10] | 2.74 ± 0.071 |
| QAIPKFQMNCYAKEDAF [RPN2] | 2.23 ± 0.044 |
| QALDISKKGKPTVNKKP [SRP72] | 2.82 ± 0.1 |
| QALEKIGIVEISPKGGR [RPS19A] | 2.74 ± 0.18 |
| QAMGVFLTNYNVRMDTM [RPB2] | 3.14 ± 0.16 |
| QAPFSTSTKDKNSSTSN [MED1] | 3.24 ± 0.068 |
| QAQAQAQAQAQAQAQAQ [GAL11] | 3.1 ± 0.034 |
| QAQQAQQAQARLQQGRR [SNF2] | 3.11 ± 0.092 |
| QDIKKAKRVENFNSSAP [DSN1] | 3.44 ± 0.085 |
| QDISSSTRVEFEKLYSD [FAS2] | 3.05 ± 0.24 |
| QDKEGIPPDQQRLIFAG [RPS31] | 2.8 ± 0.057 |
| QDKEKIDNLKDTLKENA [ITC1] | 3.07 ± 0.055 |
| QDLNQRFQDPYVAIVVD [RRI1] | 2.79 ± 0.11 |
| QDRQQLLPLVVSNISCL [ECM29] | 1.38 ± 0.036 |
| QDSILIIYPRSQTTLVQ [ARP9] | 1.81 ± 0.064 |
| QDVDFYKNLDRGFSKDL [RRP6] | 3.75 ± 0.15 |
| QEAVNSLKGYKIENSVQ [CSI1] | 3.29 ± 0.079 |
| QEESFSLNLGIGIVEIA [SRB8] | 1.79 ± 0.088 |
| QEGMNECPGHFGHIDLA [RPO21] | 3.25 ± 0.098 |
| QELISKAFTNWNKRDFM [ISW2] | 3.55 ± 0.23 |
| QELKADSPFSLICQNNL [SRP72] | 2.56 ± 0.064 |

| Sequence | protein stability index |
| --- | --- |
| QESSSLRLLEVTDDDRL [POP8] | 2.08 ± 0.078 |
| QEYAIEMKIGSIESKLE [SMC1] | 3.34 ± 0.12 |
| QFGNACISLSGVPNYLV [SSN2] | 2.05 ± 0.093 |
| QFIKSNFEKILLTCYEL [SRB8] | 3 ± 0.23 |
| QFKKLTHAQRTGLSQIP [PRP8] | 2.46 ± 0.1 |
| QFLYEKHYKNIPRNSPL [RPC82] | 1.9 ± 0.056 |
| QFSESTHNDIDSTAVAL [YJL039C/NUP192] | 2.5 ± 0.2 |
| QFSQLNDPNAAVNMTQN [MED6] | 2.91 ± 0.1 |
| QFTRFFLLVPSKQVQVS [ECM29] | 1.18 ± 0.061 |
| QFVSKLVDNLNAEVVAG [BRR2] | 2.25 ± 0.049 |
| QGAKTYLERTLDTFIKI [PRE5] | 3.18 ± 0.068 |
| QGIIYAKVNRPAKIVNF [RPN5] | 2.72 ± 0.15 |
| QGNPKKRPGKLSDYIPG [CYT1] | 3.24 ± 0.067 |
| QGTGKKTASLGNSKDDL [ISW2] | 2.9 ± 0.18 |
| QHDKMVDKIFEKVNNNA [SWI1] | 2.73 ± 0.081 |
| QHEQQKQQEQLEQQKQP [YMR153W/NUP53] | 3.35 ± 0.057 |
| QHTTESDNISRKYEISF [RPB2] | 3.17 ± 0.088 |
| QHYKNNSISSQPASYHS [SSN2] | 3.03 ± 0.067 |
| QIAKFVVGLGERVSPTD [RPT1] | 1.33 ± 0.04 |
| QIIFGVVEKKTVGSSNG [RPO21] | 1.66 ± 0.098 |
| QIRDVMERFSVLCNSNI [RRP6] | 2.82 ± 0.11 |
| QITPTVPHSHPSDMVIP [SNF12] | 2.59 ± 0.045 |
| QIVPYIEKLTDGHLRAP [BRR2] | 3.1 ± 0.043 |
| QKIRNSEGISEATREVF [ITC1] | 3.47 ± 0.19 |
| QKKARTILQHLSEAWRC [PRP8] | 1.8 ± 0.097 |
